Results as given in patent publication US20130029395.

Target: octadecenoyl-ACP

B1: Synechococcus elongatus PCC7942 YP-400611 (Synpcc7942-1594) protein with C-terminal His-tag (protein)
chain: MFGLIGHLTSLEQARDVSRRMGYDEYADQGLEFWSSAPPQIVDEITVTSATGKVIHGRYIESCFLPEMLAARRFKTATRKVLNAMSHAQKHGIDISALGGFTSIIFENFDLASLRQVRDTTLEFERFTTGNTHTAYVICRQVEAAAKTLGIDITQATVAVVGATGDIGSAVCRWLDLKLGVGDLILTARNQERLDNLQAELGRGKILPLEAALPEADFIVWVASMPQGVVIDPATLKQPCVLIDGGYPKNLGSKVQGEGIYVLNGGVVEHCFDIDWQIMSAAEMARPERQMFACFAEAMLLEFEGWHTNFSWGRNQITIEKMEAIGEASVRHGFQPLALAI
  Km for the reduction of octadecenoyl-ACP in the presence of 2 mM NADPH: 7.8 ± 2 µM
